Results published in US20110212843, “STRUCTURE BASED AND COMBINATORIALLY SELECTED OLIGONUCLEOSIDE PHOSPHOROTHIOATE AND PHOSPHORODITHIOATE APTAMER TARGETING AP-1 TRANSCRIPTION FACTORS” (BOARD OF REGENTS, THE UNIVERSITY OF TEXAS SYSTEM, published 2011).

Columns and labels:
NF-kB p50 homodimer [1] = biological target: T1, NF-kB p50 homodimer (UniProt P19838 P19838:1-433); test: bead fluorescence, Alexa Fluor 488-p50; details: chain copies: 2 stated
Excerpt: (§1) The dsDNA thioaptamer library beads were screened for the ability to bind the NF-κB p50/p50 dimer labeled with the Alexa Fluor 488 dye (Molecular Probes). After initial binding of protein, the beads were thoroughly washed with PBS with 0.1% Tween 20 to minimize nonspecific binding. Typically, a few positive beads were intensely stained when viewed by fluorescence, while the majority of the beads remained unstained as (data not shown). With the aid of a micropipette coupled to a micromanipulator, the intensely stained beads were retrieved. Only highly positive beads from several thousand were found using this method. As described below, multicolor flow cytometry and cell/bead sorting was used to automate the selection process to select the tightest binding thioaptamer-protein complexes.
(§2) Sequencing may also be obtained directly from the bead. Each individually selected bead was washed thoroughly with 8 M urea (pH 7.2) to remove the protein and was directly used for the “one-bead one-PCR” amplification using the 5′ and 3′ end primers. The PCR product was cloned using the TA Cloning procedure (Invitrogen) and sequenced on an ABI Prism 310 Genetic Analyzer (Applied Biosystems). The four thioaptamers listed in Table 3 were obtained from the library. […] The fluorescence intensity of all of the beads viewed under the fluorescence microscope was qualitatively similar to the intensity of the selected bead containing this sequence within the combinatorial library. […] Thus, the split synthesis has been used to create a “one-bead-one sequence” ODN and that PCR can be used to identify an S-ODN bound to a bead (Yang et al., 2002; Gorenstein et al, US & Foreign Patents pending, 1999 a, b, 2001, 2002).

NF-kB p50 homodimer [2] = biological target: T1, NF-kB p50 homodimer; test: bead fluorescence, Alexa Fluor 488-p50; PBS 0.1% Tween 20 wash; details: chain copies: 2 stated
Excerpt: as §1
Sequencing may also be obtained directly from the bead. Each individually selected bead was washed thoroughly with 8 M urea (pH 7.2) to remove the protein and was directly used for the “one-bead one-PCR” amplification using the 5′ and 3′ end primers. The PCR product was cloned using the TA Cloning procedure (Invitrogen) and sequenced on an ABI Prism 310 Genetic Analyzer (Applied Biosystems). […] The fluorescence intensity of all of the beads viewed under the fluorescence microscope was qualitatively similar to the intensity of the selected bead containing this sequence within the combinatorial library. […]

NF-kB p50 homodimer [3] = biological target: T1, NF-kB p50 homodimer; test: resynthesised on bead; text labels it SEQ ID NO 7 but printed sequence differs; details: chain copies: 2 stated
Excerpt: as §2

AP-1 c-Jun = AP-1 c-Jun (Homo sapiens, UniProt P05412 P05412:1-331); test: EMSA; specific binding to recombinant human c-Jun dimers; details: chain copies: 2 stated
AP-1 c-Jun, sequence (P05412 whole entry, one chain of several): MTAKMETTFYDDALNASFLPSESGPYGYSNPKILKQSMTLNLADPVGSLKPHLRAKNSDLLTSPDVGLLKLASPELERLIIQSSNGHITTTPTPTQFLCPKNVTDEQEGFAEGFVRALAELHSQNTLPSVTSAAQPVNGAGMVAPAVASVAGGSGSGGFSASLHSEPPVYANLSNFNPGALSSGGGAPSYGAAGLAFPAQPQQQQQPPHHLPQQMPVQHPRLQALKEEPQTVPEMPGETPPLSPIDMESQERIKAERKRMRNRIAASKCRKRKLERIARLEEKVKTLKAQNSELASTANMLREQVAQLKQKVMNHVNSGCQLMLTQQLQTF

[4] = biological target: NF-kB p65 (Rel A) homodimer (UniProt Q04206 Q04206:1-551)
NF-kB p65 (Rel A) homodimer, sequence (Q04206 whole entry, one chain of several): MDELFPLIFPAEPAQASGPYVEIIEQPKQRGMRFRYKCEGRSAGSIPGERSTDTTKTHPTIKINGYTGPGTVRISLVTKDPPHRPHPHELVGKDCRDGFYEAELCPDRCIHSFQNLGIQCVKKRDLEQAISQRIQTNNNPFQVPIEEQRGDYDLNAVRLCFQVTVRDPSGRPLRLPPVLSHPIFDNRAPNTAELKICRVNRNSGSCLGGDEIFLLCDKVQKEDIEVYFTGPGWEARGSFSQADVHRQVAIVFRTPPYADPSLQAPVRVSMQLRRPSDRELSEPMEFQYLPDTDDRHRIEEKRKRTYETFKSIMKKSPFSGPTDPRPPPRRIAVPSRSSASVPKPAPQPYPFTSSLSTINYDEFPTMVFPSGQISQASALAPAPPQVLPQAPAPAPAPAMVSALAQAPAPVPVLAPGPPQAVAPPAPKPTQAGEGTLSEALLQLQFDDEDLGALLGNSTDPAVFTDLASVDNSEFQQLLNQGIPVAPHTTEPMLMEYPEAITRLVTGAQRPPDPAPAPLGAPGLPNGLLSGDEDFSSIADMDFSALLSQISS

NF-kB p50 homodimer [5] = biological target: T1, NF-kB p50 homodimer; test: sub-nM binding affinity; details: chain copies: 2 stated

T1 sequence (P19838 1-433, one chain of several): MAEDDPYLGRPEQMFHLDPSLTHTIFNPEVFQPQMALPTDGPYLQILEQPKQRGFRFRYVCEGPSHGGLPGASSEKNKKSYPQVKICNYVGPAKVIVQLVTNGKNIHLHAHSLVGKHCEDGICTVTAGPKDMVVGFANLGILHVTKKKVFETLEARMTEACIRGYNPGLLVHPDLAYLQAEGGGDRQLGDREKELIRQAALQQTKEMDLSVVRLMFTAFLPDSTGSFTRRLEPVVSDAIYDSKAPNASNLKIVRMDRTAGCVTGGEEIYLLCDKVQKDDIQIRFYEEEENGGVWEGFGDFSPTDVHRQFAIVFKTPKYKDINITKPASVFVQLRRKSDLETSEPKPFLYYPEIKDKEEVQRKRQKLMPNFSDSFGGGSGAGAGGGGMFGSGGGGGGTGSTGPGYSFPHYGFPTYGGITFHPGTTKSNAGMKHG

B1: Split-synthesis thioaptamer SEQ 9 (dsDNA)
DNA 1: AGTTGCAGGTCAGGACCCATTT
DNA 2: AAATGGGTCCTGACCTGCAACT
modifications: PS 3' of lower-case bases in AGTTGcAGGtCaGgACCCAtTt, one strand
binding result (NF-kB p50 homodimer [1]): binds

B2: Split-synthesis thioaptamer SEQ 6 (dsDNA)
DNA 1: TGTGCAGGGACTGATGACGGT
DNA 2: ACCGTCATCAGTCCCTGCACA
modifications: PS 3' of lower-case bases in tGTGcAGGGACTgAtGaCGGt, one strand
binding result (NF-kB p50 homodimer [2]): binds

B3: Resynthesised bead thioaptamer (dsDNA)
DNA 1: CTGTGAGTCGACTGATGACGGT
DNA 2: ACCGTCATCAGTCGACTCACAG
modifications: PS 3' of lower-case bases, one strand
binding result (NF-kB p50 homodimer [3]): binds

B4: XBY-S2 (dsDNA)
DNA 1: CCAGTGACTCAGTG
DNA 2: CACTGAGTCACTGG
modifications: phosphorodithioates, 6 in total, 3' of T at S2 positions as printed (3 per strand)
binding result (AP-1 c-Jun): binds

B5: Split-synthesis thioaptamer SEQ 8 (dsDNA)
DNA 1: ATGCACATCTCAGGATGACGGT
DNA 2: ACCGTCATCCTGAGATGTGCAT
modifications: PS 3' of lower-case bases in AtGcAcAtCtCaGgAtGaCGGt, one strand
binding result (NF-kB p50 homodimer [1]): binds

B6: XBY-6 (dsDNA)
DNA 1: CCAGGAGATTCCAC
DNA 2: GTGGAATCTCCTGG
modifications: phosphorodithioate 3' of T9 and T10 of top strand and 3' of each T printed as S2T in bottom strand (4), 6 in total
Kd [4]: 1.4 nM | Kd (NF-kB p50 homodimer [5]): < 1 nM

B7: Split-synthesis thioaptamer SEQ 7 (dsDNA)
DNA 1: CTGTGCATCGAAGTTTGCATTT
DNA 2: AAATGCAAACTTCGATGCACAG
modifications: PS 3' of lower-case bases in CtGTGCatCGAaGTTtGCAtTt, one strand
binding result (NF-kB p50 homodimer [1]): binds
